1 protein from PMC3399781 (Structure (London, England : 1993), 2010) can be followed below.

This series deals with the molecule itself. Briefly: AUC.

B1: 2GS mGRFT (GRFT with GSGS inserted between Ser16 and Gly17) (natural protein)
chain: SLTHRKFGGSGGSPFSGSGSGLSSIAVRSGSYLDAIIIDGVHHGGSGGNLSPTFTFGSGEYISNMTIRSGDYIDNISFETNMGRRFGPYGGSGGSANTLSNVKVIQINGSAGDYLDSLDIYYEQY
One may read the Kd as the free concentration of one partner at which half of the binding sites on the other are occupied at equilibrium, for simple one-to-one binding. The protein B1 showed a Kd of 1170 µM.
